# Measurements taken from paper PMC10331576.
# B1: DC-SIGN.Fc, Q9NNX6 (Fc fusion)
# chain: QVSKVPSSISQEQSRQDAIYQNLTQLKAAVGELSEKSKLQEIYQELTQLKAAVGELPEKSKLQEIYQELTRLKAAVGELPEKSKLQEIYQELTWLKAAVGELPEKSKMQEIYQELTRLKAAVGELPEKSKQQEIYQELTRLKAAVGELPEKSKQQEIYQELTRLKAAVGELPEKSKQQEIYQELTQLKAAVERLCHPCPWEWTFFQGNCYFMSNSQRNWHDSITACKEVGAQLVVIKSAEEQNFLQLQSSRSNRFTWMGLSDLNQEGTWQWVDGSPLLPSFKQYWNRGEPNNVGEEDCAEFSGNGWNDDKCNLAKFWICKKSAASCSRDEEQFLSPAPATPNPPPA
# Molecular target: COVID-2019-Spike-328-585 (RBD) (SARS-CoV-2), P0DTC2
# Experiment: BLI; […] (HIS1K) […] (50 μM, 31 μM, and 8.8 μM); 30°C, PBS; 1:1 binding model; Octet HTX
# Conditions: remark: other sources report otherwise
binder,measurement,value
B1,Kd,18.7 µM
